According to patent US20140219982A1, “EXOGENOUS OPIOID PEPTIDE-DEGRADING ENZYME” (priority 2011, published 2014):

System: gliadorphin (YPQPQPF: SEQ ID NO: 2)
Assay: Analysis of gliadorphin degradation product by LC-MS
Format: biochemical

B1: papain (protein, UniProt P00784 134-345, looked up)
Papain: IPEYVDWRQKGAVTPVKNQGSCGSCWAFSAVVTIEGIIKIRTGNLNEYSEQELLDCDRRSYGCNGGYPWSALQLVAQYGIHYRNTYPYEGVQRYCRSREKGPYAAKTDGVRQVQPYNEGALLYSIANQPVSVVLEAAGKDFQLYRGGIFVGPCGNKVDHAVAAVGYGPNYILIKNSWGTGWGENGYIRIKRGTGNSYGVCGLYTSSFYPVKN
notes: protease, commercial (Asahi Food & Healthcare Co., Ltd.)
LC-MS of degradation product
  detection of undegraded 7-mer of gliadorphin: undegraded 7-mer was detected
Papain alone, as shown in the examples
  direct degradability for exomorphine peptide: did not exhibit direct degradability
